This note sets out measurements from patent publication US20140017259A1 (TAKIS S R L, published 2014).

Assay [1] has as its target T1, mouse HER3 (mouse, UniProt Q61526 20-1339).
T1 construct: whole, on cells; also called murine HER3
The experiment in a line: flow cytometry on CHO cells transiently transfected with mouse HER3, antibody at 10 µg/ml. (A flow cytometer gives signals particle by particle.)

The target of assay [2] is T2, human ErbB3 15mer peptide QCNGHCFGPNPNQCC (human).
T2 construct: One of 158 15mer peptides of human ErbB3 overlapping by 11 residues (Jerini Peptide Technologies), coated on the ELISA plate
T2 peptide: QCNGHCFGPNPNQCC
The experiment in a line: ELISA on plate-coated 15mer peptides, A3 at 1 µg/ml. Here is the method: To identify the epitope recognized by A3 antibody, a human ErbB3 peptide collection consisting of 158 15mer peptides overlapping by 11 residues (Jerini Peptide Technologies, Berlin, Germany) has been utilized. Each peptide was resuspended in DMSO at 40 mg/ml and diluted in sodium carbonate buffer (10 mM, pH 9.6) at 1 μg/ml in 96well plates (Nunc Maxisorp) at a volume of 100 μl/well and incubated over night at 4° C. Human ErbB3 ECD-Fc protein (RnD) and buffer coated wells were used as positive and negative controls of the assay, respectively. The day after, plates were washed with 200 μl PBS 1× pH 7.4 and blocked with PBS 5% BSA for 2 hr at room temperature. After three washes with PBS, 0.05% Tween20 (PBST), plates were incubated for 2 hours at room temperature with A3 antibody diluted at 1 μg/ml in PBST, 1% BSA for 2 hours at room temperature. Plates were then washed three times in PBST and then incubated with 1/5000 diluted goat anti-mouse IgG HRP conjugated (Abcam) for one hour. After three washing in PBST, 100 μl/well 3, 3′, 5, 5′-Tetramethylbenzidine (TMB) Liquid Substrate (Sigma) were added and the reaction stopped 20 minutes later with 50 μl/well Stop Reagent for TMB Substrate (Sigma). OD₄₅₀ was determined at an ELISA reader (Perkin Elmer).
A general note: ELISA stands for enzyme-linked immunosorbent assay.

In assay [3] the target is T3, Recombinant protein HER3-ECD-Fc (RnD Systems) (human, UniProt P21860 20-643).
T3 construct: extracellular domain; also called Human ErbB3 ECD-Fc protein (RnD); not shown: Fc part of the bought fusion
T3 sequence (P21860 20-643): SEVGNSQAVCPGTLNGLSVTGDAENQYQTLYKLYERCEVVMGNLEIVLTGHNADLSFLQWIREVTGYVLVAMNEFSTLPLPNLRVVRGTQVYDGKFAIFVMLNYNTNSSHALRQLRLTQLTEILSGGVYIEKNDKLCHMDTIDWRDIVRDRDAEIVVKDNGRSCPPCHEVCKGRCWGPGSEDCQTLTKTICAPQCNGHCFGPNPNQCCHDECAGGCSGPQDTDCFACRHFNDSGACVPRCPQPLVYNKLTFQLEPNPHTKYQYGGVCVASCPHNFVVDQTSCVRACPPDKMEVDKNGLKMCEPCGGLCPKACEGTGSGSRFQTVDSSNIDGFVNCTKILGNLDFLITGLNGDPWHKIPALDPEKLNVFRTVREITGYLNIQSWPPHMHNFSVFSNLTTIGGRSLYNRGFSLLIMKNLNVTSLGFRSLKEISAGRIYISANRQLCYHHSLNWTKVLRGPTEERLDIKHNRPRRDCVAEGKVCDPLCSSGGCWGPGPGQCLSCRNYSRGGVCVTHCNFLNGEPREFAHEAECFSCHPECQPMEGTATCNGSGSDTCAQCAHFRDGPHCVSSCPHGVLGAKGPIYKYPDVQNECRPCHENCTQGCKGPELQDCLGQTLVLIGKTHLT
The experiment in a line: competition ELISA (NRG Ligand Blocking): HER3-ECD-Fc on the plate, antibody, then 10 nM NRG-1β, bound NRG detected.

Assay [4] has as its target T3, Recombinant protein HER3-ECD-Fc (RnD …). The experiment in a line: SPR, Biacore T100: antibody captured on an anti-Fc CM5 chip, HER3-ECD-Fc injected as analyte. As for the experimental part: Among the hybridomas described above, two antibodies, A3 and A4, were further selected for a biochemical and functional characterization. In particular, the following assays have been performed: [0174] Bioacore analysis. Affinity for HER3 and kₒₙ/koff were determined by Surface Plasmon Resonance using a Biacore T100 instrument. A biosensor chip CM5 (GE Healthcare) was covalently bound to an anti-Fc (8000 RU) and then treated with antibodies at different concentrations (<1000 RU). Recombinant protein HER3-ECD-Fc (RnD Systems) in HBS-EP buffer at the analyte concentration 1:1 was injected for 2 minutes at 30 μl/min, followed by a 10 minutes dissociation phase. [0175] Cross-reactivity with mouse HER3 receptor and with other human ErbB receptors. […] After a wash in FACS buffer, an anti-mouse IgG conjugated with Phycoerythrin (PE, Becton Dickinson) was added and cells were analyzed by a FACSCalibur (Becton Dickinson). […] After 2 washes with PBS, 0.05% Tween20, the signal was measured by incubation with a biotinylated goat anti-NRG-1β antibody (RnD Systems) and Streptavidin conjugated with peroxidase and utilizing an HRP substrate (Pierce). Data were acquired with an ELISA reader at 450 nm. […]
(In general: SPR reads the build-up and loss of mass on a sensor chip optically.)

The target of a further assay is T4, HER1/EGFR (human, UniProt P00533 25-1210).
T4 construct: whole, on cells
The experiment in a line: flow cytometry on transiently transfected CHO cells.

Another assay has as its target T5, HER4 (human, UniProt Q15303 26-1308).
T5 construct: whole, on cells; also called ErbB4
Described as above.

The target of a further assay is T6, HER2 (human, UniProt P04626 23-1255).
T6 construct: whole, on cells; also called ErbB2
The description is as above.

Assay [5] deals with T1, mouse HER3. The experiment in a line: flow cytometry on CHO cells transiently transfected with mouse HER3.

As a reminder, the IC50 is the concentration at which inhibition is half-maximal. As a reminder, the Kd is the free concentration of one partner at which half of the binding sites on the other are occupied at equilibrium, for simple one-to-one binding.

T5 sequence (Q15303 26-1308): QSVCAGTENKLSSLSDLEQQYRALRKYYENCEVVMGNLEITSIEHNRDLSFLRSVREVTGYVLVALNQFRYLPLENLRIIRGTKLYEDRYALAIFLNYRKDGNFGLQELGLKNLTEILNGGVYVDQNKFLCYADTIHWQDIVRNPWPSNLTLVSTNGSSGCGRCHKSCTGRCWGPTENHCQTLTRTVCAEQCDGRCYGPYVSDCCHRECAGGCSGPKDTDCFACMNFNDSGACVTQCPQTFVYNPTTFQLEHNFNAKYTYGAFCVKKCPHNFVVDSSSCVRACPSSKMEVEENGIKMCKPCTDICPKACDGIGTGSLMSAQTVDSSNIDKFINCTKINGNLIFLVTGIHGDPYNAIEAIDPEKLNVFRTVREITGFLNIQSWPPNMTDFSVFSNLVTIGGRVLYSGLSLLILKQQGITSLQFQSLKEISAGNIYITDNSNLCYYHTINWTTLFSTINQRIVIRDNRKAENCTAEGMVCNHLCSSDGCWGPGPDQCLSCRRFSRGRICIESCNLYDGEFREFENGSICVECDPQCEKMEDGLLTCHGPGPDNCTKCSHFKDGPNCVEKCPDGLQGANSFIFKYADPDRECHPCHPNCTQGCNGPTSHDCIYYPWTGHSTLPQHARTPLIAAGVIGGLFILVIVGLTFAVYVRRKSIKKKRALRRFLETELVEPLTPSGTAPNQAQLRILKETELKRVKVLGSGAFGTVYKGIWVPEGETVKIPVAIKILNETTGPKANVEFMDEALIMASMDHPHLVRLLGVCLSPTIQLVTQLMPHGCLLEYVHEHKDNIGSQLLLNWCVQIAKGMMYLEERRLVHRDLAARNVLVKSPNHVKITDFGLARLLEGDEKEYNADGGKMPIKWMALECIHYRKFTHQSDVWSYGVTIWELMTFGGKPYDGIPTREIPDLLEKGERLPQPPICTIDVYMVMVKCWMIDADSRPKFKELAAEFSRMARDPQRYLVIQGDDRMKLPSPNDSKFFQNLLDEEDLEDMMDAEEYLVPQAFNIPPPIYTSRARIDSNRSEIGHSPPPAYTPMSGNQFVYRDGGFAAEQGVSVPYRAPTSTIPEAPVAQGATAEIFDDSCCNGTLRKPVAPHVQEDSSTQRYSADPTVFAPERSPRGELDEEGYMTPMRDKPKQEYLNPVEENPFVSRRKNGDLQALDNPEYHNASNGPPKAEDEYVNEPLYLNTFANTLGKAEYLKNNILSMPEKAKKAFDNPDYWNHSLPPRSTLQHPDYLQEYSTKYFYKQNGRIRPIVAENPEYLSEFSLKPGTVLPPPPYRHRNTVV
T1 sequence (Q61526 20-1339): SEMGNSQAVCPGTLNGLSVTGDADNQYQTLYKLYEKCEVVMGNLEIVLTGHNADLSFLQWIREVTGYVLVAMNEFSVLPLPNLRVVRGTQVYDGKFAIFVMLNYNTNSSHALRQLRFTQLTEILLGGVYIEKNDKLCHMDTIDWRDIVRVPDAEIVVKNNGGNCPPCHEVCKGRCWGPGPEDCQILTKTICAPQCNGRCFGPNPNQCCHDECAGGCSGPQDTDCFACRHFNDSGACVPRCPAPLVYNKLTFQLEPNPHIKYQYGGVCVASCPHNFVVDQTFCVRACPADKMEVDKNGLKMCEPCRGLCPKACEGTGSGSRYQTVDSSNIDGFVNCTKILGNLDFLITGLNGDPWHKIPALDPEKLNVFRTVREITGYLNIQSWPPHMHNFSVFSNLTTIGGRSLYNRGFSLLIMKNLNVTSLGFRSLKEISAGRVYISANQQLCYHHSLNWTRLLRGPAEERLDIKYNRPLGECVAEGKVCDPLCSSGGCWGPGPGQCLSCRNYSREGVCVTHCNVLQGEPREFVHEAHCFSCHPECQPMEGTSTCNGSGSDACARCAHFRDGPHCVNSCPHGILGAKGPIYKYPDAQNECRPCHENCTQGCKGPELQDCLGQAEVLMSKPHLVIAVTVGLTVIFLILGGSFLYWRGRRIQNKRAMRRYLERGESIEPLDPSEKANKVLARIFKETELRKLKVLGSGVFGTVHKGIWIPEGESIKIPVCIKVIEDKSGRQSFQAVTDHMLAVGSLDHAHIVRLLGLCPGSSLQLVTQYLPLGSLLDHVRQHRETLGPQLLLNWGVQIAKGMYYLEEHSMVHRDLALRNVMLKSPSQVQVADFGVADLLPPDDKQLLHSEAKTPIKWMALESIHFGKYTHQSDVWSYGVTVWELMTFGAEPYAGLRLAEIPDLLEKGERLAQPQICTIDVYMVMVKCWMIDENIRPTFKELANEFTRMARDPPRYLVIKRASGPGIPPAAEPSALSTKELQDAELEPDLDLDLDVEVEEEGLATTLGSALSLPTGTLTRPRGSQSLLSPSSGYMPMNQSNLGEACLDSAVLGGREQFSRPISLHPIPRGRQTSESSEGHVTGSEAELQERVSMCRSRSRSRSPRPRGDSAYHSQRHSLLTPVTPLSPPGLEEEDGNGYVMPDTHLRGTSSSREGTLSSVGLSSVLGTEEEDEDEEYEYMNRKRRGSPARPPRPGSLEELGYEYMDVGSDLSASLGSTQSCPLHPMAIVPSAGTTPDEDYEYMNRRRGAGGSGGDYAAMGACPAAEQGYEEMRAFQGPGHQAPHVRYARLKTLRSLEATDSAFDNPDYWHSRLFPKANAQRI

B1: Antibody A3 (antibody, V domains shown)
VH: QVTLKESGPGKLQPSQTLSLTCSFSGFSLSTYGMGVGWIRQPLGKGLEWLANIWWNDDKYYNSALKSRLTISKDTSNNQVFLKISSVDTADAATYYCVQIANPYWYFDVWGAGTTVTVSS
VL: DVLMTQTPLSLPVSLGDQASISCRSSQSIVHSYGNTYLEWYLQKPGQSPKLLIYRVSNRFSGVPDRFSGSGSGTDFTLKISRVEAEDLGVYYCFQGSHVPFTFGTGTKLEIKR
notes: Murine monoclonal IgG from a hybridoma of BALB/c mice immunised with HER3 H584F DNA; also called A3 monoclonal antibody
Take B1: the binding result was “binds” in the assay with mouse HER3 [1]; “binds” in assay [2]; “no binding (tested: 10 µg/ml)” with HER1/EGFR; “no binding (tested: 10 µg/ml)” with HER4; “no binding (tested: 10 µg/ml)” with HER2. Besides, the IC50 in assay [3] is 1.1 nM. The Kd in assay [4] was found to be 7.4 nM.

B2: Antibody A4 (antibody, V domains shown)
VH: QVQLQQPGSELVRPGASVKLSCKASGYTFTIFWIHWVKQRPGQGLEWIGNIYPGSGGTNYDEKFKSKATLTVDTFSSTAYMQLSSLTSEDSAVYYCTRWGTGKDYWGQGTTLKVSS
VL: QIVLTQSPAIMSASPGEKVTMTCRARSSVSSSYLHWYQQKPGSSPKLWIYSTSNLALGVPARFSGSGSGTSYSLTISSVEAEDAATYYCQQYDSSPFTFGTGTKLEIKR
notes: Murine monoclonal IgG with a kappa light chain, from a hybridoma; also called murine A4; A4 monoclonal antibody
B2: the IC50 in assay [3] was 2.8 nM. The Kd in assay [4] was 2.4 nM. Moreover, the binding result with mouse HER3 [5], with HER1/EGFR, with HER4 and with HER2 was “no binding (tested: 10 µg/ml)” in each case.
